Target: N-terminally His-tagged recombinant ribosomal protein S1 of E. coli (from plasmid p16rpsAHis) (E. coli) (UniProt P0AG67)
Assay: native gel or EMSA; constant molar amount of S1 mixed with increasing RIII (RIII:S1 0.1:1 to 5:1), 10 min at room temperature, proteins dialysed against 50 mM sodium phosphate pH 7.4, 100 mM NaCl; native 14% PAGE, Coomassie

## N-terminally 6His-tagged RIII protein of the T4 phage (from plasmid p21drIIIHis) (natural protein)
  stoichiometry N (RIII:S1 molar ratio): 1

Reference: publication PMC9409239
